The values that follow come from PMC7094161, “An Alternative Pin1 Binding and Isomerization Site in the N-Terminus Domain of PSD-95” (Frontiers in Molecular Neuroscience, 2020).

What all share (test): FRET or BRET; FRET/FLIM: EGFP fluorescence lifetime of EKAR constructs (WW domain and peptide on one chain) in fixed, mounted COS cells; serum in the medium
Conditions in all cases: partners not purified
Background: In BRET a luciferase serves as donor, and the signal depends on an acceptor being close.

In assay [1] the target is T1, PSD-95 T19 peptide of the EKAR construct (UniProt P31016 14-24).
T1 construct: PSD-95 peptide around T19 put in place of the CDC25C peptide; 11 residues, the text says 10-mer; On one chain with m14 (see its note); also called EKAR T19; EKAR_(cyto)T19; source: COS cells, transfected, in cells
T1 peptide (looked up): YQDEDTPPLEH

For assay [2], the target named is T2, PSD-95 S25 peptide of the EKAR construct (UniProt P31016 20-30).
T2 construct: PSD-95 peptide around S25 put in place of the CDC25C peptide; On one chain with m14 (see its note); also called EKAR S25; source: COS cells, transfected, in cells
T2 peptide (looked up): PPLEHSPAHLP

Assay [3] concerns the target T3, PSD-95 S35 peptide of the EKAR construct (UniProt P31016 30-40).
T3 construct: PSD-95 peptide around S35 put in place of the CDC25C peptide; On one chain with m14 (see its note); also called EKAR S35; source: COS cells, transfected, in cells
T3 peptide (looked up): PNQANSPPVIV

B1: Pin1 WW domain of the EKAR construct (domain or fragment, UniProt Q13526 5-39, looked up)
chain: EKLPPGWEKRMSRSSGRVYYFNHITNASQWERPSG
notes: Pin1 WW domain as in the EKAR construct (Harvey et al., 2008); source: COS cells, transfected, in cells
On to B1, for which the EGFP fluorescence lifetime in assay [1] stood at 1.72 ns; in assay [2], 1.69 ns; in assay [3] it was 1.81 ns.
